The data set concerns the molecule itself. As to the kind of experiment: SDS-PAGE and Western blot. (A western blot detects proteins with antibodies after separation by electrophoresis.)

B1: His-tagged aquaporin-9 (natural protein, UniProt P56627 1-295, looked up)
chain: MPSEKDGAKKSLMQRLALKSRIAKETLSEFLGTFIMIVLGCSSIAQAVLSRERFGGIITINIGFASAVVMALYVTFGISGGHINPAVSFAMCAFGRMEWFKFPFYVGAQFLGAFVGAATVFGIYYDGLMAFAGGKLLVVGENATAFIFATYPAPFISTPGAFVDQVVSTMFLLLIVFAMFDSRNLGVPRGLEPVVIGLLIIVLSCSLGLNSGCAMNPARDLSPRLFTALAGWGFEVFTVGNNFWWIPVVGPMIGAFLGGLIYILFIQMHHSKLDPDMKAEPSENNLEKHELSVIM
modifications: unglycosylated (~32 kDa) and glycosylated (~35 kDa) forms
Turning to B1, the stoichiometry N (commonly the number of molecules, sites or subunits per partner or assembly) came to 2.

These data come from PMC2564605 (Journal of molecular biology, 2008).
